Data on six proteins can be found in paper PMC3209416.

Where a chain is given by its changes, count along the chain named. Names may count otherwise.

Substrate in this series: CCCCC(O)CC(=O)C(=O)O
In words: purified protein. The format is biochemical, Thermotoga maritima. Conditions: retro-aldol cleavage, HEPES 100 mM pH 7.5, 34 °C.

What is called Km is the concentration of substrate that gives half-maximal velocity. For orientation: kcat means the number of substrate molecules converted per active site and unit of time at saturation. As a reminder, the kcat/Km is the turnover number divided by the Michaelis constant.

B1: T. maritima KDPG aldolase (wt-TMA; TM KDPG aldolase) (Thermotoga maritima MSB8; N150I) (protein)
chain: MKMEELFKKHKIVAVLRANSVEEAKEKALAVFEGGVHLIEITFTVPDADTVIKELSFLKEKGAIIGAGTVTSVEQCRKAVESGAEFIVSPHLDEEISQFCKEKGVFYMPGVMTPTELVKAMKLGHTILKLFPGEVVGPQFVKAMKGPFPIVKFVPTGGVNLDNVCEWFKAGVLAVGVGSALVKGTPDEVREKAKAFVEKIRGCTE
For B1, under “mutant TM 8”, the Km is recorded as 49 ± 19 mM, the turnover number (kcat) amounted to 1.2 ± 0.3 s⁻¹ and the kcat/Km came to 25 ± 5 M⁻¹ s⁻¹.

B2: T. maritima KDPG aldolase (wt-TMA; TM KDPG aldolase) (Thermotoga maritima MSB8; G83E/K9T) (protein)
chain: B1 chain with K9T, G83E, I150N
For B2, for the setting “mutant TM 2”, the Km is on record as 90 ± 20 mM, the kcat worked out at 0.5 ± 0.1 s⁻¹ and the specificity constant (kcat/Km) turned out to be 5.5 ± 1 M⁻¹ s⁻¹.

B3: T. maritima KDPG aldolase (wt-TMA; TM KDPG aldolase) (Thermotoga maritima MSB8; A30V) (protein)
chain: B1 chain with A30V, I150N
Take B3: for the setting “mutant TM 5”, the Km is 14 ± 5 mM, the turnover number (kcat) was determined as 0.75 ± 0.1 s⁻¹ and the kcat/Km stood at 54 ± 10 M⁻¹ s⁻¹.

B4: T. maritima KDPG aldolase (wt-TMA; TM KDPG aldolase) (Thermotoga maritima MSB8; G34R/R190I/V172A) (protein)
chain: B1 chain with G34R, I150N, V172A, R190I
Consider B4, for which, where the note is “mutant TM 1”, the Km is on record as 9 ± 2 mM, the kcat was determined as 0.07 ± 0.01 s⁻¹ and the kcat/Km stood at 9.3 ± 1.8 M⁻¹ s⁻¹.

B5: T. maritima KDPG aldolase (wt-TMA; TM KDPG aldolase) (Thermotoga maritima MSB8; I52F/T185A/V135M) (protein)
chain: B1 chain with I52F, V135M, I150N, T185A
For the protein B5, for the setting “mutant TM 6”, the Km was 8 ± 3 mM, the kcat turned out to be 0.13 ± 0.02 s⁻¹ and the kcat/Km stood at 17 ± 6 M⁻¹ s⁻¹.

B6: T. maritima KDPG aldolase (wt-TMA; TM KDPG aldolase) (Thermotoga maritima MSB8; V136M) (protein)
chain: B1 chain with V136M, I150N
On to B6, for which, under “mutant TM 4”, the Km is 23 ± 4 mM, the kcat was determined as 0.36 ± 0.02 s⁻¹ and the kcat/Km worked out at 16 ± 2 M⁻¹ s⁻¹.
